The nature of series [1]: Single dose pharmacokinetics of EXT607 in male rats. To be noted: rat, in vivo, sc; rats, after subcutaneous dosing; read-out: terminal half-life. The method, then: In a single dose pharmacokinetic study, EXT607 was formulated in PBS and groups of male rats (n=3) were dosed at a volume of 1 ml/kg as follows: Group 1, 100 μg/kg intravenous; Group 2, 30 μg/kg subcutaneous; Group 3, 100 μg/kg subcutaneous; Group 4, 300 μg/kg subcutaneous. Blood (0.25 mL) was collected via the jugular vein cannula, transferred into tubes containing K2EDTA, and kept on wet ice until processed for plasma. Blood samples were collected at 0 (predose), 0.083 (IV only), 0.25, 0.5, 1, 2, 4, 6, 8, 12, 24, 36, 48, 60 and 72 h postdose.
Pharmacokinetic parameters were determined from the plasma concentration versus time data (Table 4) by a non-compartmental analysis with uniform weighting using Phoenix® WinNonlin® Version 6.3 (Certara L.P. (Pharsight), St. Louis, MO). The concentration versus time data were analyzed using the IV bolus or extravascular administration models. Best fit Lambda z ranges were used.

The nature of another series: Solubility in PBS (A280). Format: physicochemical. As for the experimental part: PEG Length and Counterion Affects Solubility: The solubility of the acetate and carbonate salt form of each compound was determined as follows. For EXT611, EXT606, and EXT608, phosphate buffered saline (PBS) was added to each compound to form a saturated solution. Undissolved compound was removed by centrifugation. The concentration of dissolved compound was determined by measuring the absorbance at 280 nm using an extinction coefficient of 18,600 M^−1 cm^−1. For EXT615, EXT616, and EXT617, solubility was limited practically by the high viscosity imparted by the large PEG moieties. Highly viscous drug formulations are difficult to manipulate and require large needle bore sizes that cause increased injection site pain. PBS was added to EXT615, EXT616, and EXT617 incrementally until a solution was obtained that could be successfully pipetted through a pipet tip with a bore of approximately 1 mm diameter (enlarged by removing the end with a razor blade). The concentration of dissolved compound was determined by measuring the absorbance at 280 nm using an extinction coefficient of 18,600 M^−1 cm^−1. […] For EXT608, the acetate salt was 17.6-fold more soluble than the carbonate salt.

Series [2] deals with healthy human participants. The series is described as follows: Single dose pharmacodynamics of EXT608 in healthy humans (serum calcium, endogenous PTH(1-84), urinary calcium). The format is in vivo. To be noted: any dose level tested, about 36 hours post-administration (data not shown). The method, then: EXT608 vastly improves the serum half-life in humans in a dose-dependent manner. Sterile EXT608 formulations were prepared at a concentration of 0.4 mg/ml in 10 mM sodium acetate buffer pH=5.5, 4.5% mannitol, and 0.25% Polysorbate 80 and filled into sterile vials. Healthy human participants were administered EXT608 by subcutaneous injection in the abdomen at doses of 0, 36, 108, 216, or 324 micrograms (n=3). Pharmacodynamics: Blood samples were collected at −24, −1, 0.5, 1, 2, 4, 8, 12, 18, 24, 36, 48, and 72 hours relative to dosing as well as on Days 5, 7, 14, 21, and 28 after dosing. They were processed to serum and submitted to Quest Diagnostics for standard blood chemistry analysis including total calcium and albumin. EXT608 raised serum calcium levels in a dose-dependent fashion and was able to maintain elevated calcium levels for 24 h. Blood samples (1.5 ml) were collected at −1, 4, 24, 48, and 72 hours relative to dosing as well as on Days 5, 7, 14, 21, and 28 after dosing. They were processed to EDTA plasma and submitted to Quest Diagnostics for intact PTH(1-84) analysis (Test Code #35202). In healthy humans, under conditions of elevated serum calcium, the body will attempt to restore normal calcium levels by a variety of mechanisms including suppression of endogenous PTH(1-84). […]

A short description of series [3]: Single dose pharmacokinetics of EXT607 in male cynomolgus monkeys. The format is in vivo. The conditions noted are these: cynomolgus monkey, in vivo, sc; NHP, after subcutaneous dosing; read-out: terminal half-life. As for the experimental part:
In a single dose pharmacokinetic study, EXT607 was formulated in PBS and groups of male cynomolgus monkeys (n=3), weighing approximately 4 kg each, were dosed at a volume of 1 ml/kg as follows: Group 1, 20 μg/kg intravenous; Group 2, 7 μg/kg subcutaneous; Group 3, 20 μg/kg subcutaneous; Group 4, 70 μg/kg subcutaneous. Blood (1.0 mL) was collected via the jugular vein cannula, transferred into tubes containing K2EDTA, and kept on wet ice until processed for plasma. Blood samples were collected at 0 (pre-dose), 0.083 (IV only), 0.25, 0.5, 1, 2, 4, 6, 8, 12, 24, 36, 48, 60 and 72 h post-dose.
Pharmacokinetic parameters were determined from the plasma concentration versus time data (Table 5) by a non-compartmental analysis with uniform weighting using Phoenix® WinNonlin® Version 6.3 (Certara L.P. (Pharsight), St. Louis, MO). The concentration versus time data were analyzed using the IV bolus or extravascular administration models. Best fit Lambda z ranges were used.
At low doses, the rate of subcutaneous absorption is slower than at high doses, leading to a lower Cmax and an overall flatter PK profile.

Read-outs that look alike come from different tables or passages of the source.

Turning to `C=C1CC[C@H](OCCCNC(=O)CCOCCOCCOCCOCCOCCOCCOCCOCCOCCOCCOCCOCCOCCOCCOCCOCCOCCOCCOCCOCCOCCOCCOCCOCCOCCOCCOCCOCCOCCOCCOCCOCCOCCOCCOCCOCCNC(=O)CCN2C(=O)CC(SC[C@H](NC(=O)[C@H](Cc3ccccc3)NC(=O)[C@H](CC(N)=O)NC(=O)[C@H](Cc3c[nH]cn3)NC(=O)[C@@H](NC(=O)[C@H](CC(=O)O)NC(=O)[C@H](CCC(N)=O)NC(=O)[C@H](CC(C)C)NC(=O)[C@H](CCCCN)NC(=O)[C@H](CCCCN)NC(=O)[C@H](CCCNC(=N)N)NC(=O)[C@H](CC(C)C)NC(=O)[C@H](Cc3c[nH]c4ccccc34)NC(=O)[C@H](CCC(=O)O)NC(=O)[C@@H](NC(=O)[C@H](CCCNC(=N)N)NC(=O)[C@H](CCC(=O)O)NC(=O)[C@H](CCSC)NC(=O)[C@H](CO)NC(=O)[C@H](CC(N)=O)NC(=O)[C@H](CC(C)C)NC(=O)[C@H](Cc3c[nH]cn3)NC(=O)[C@H](CCCCN)NC(=O)CNC(=O)[C@H](CC(C)C)NC(=O)[C@H](CC(N)=O)NC(=O)[C@H](Cc3c[nH]cn3)NC(=O)[C@H](CCSC)NC(=O)[C@H](CC(C)C)NC(=O)[C@H](CCC(N)=O)NC(=O)[C@@H](NC(=O)[C@H](CCC(=O)O)NC(=O)[C@H](CO)NC(=O)[C@@H](NC(=O)[C@@H](N)CO)C(C)C)[C@@H](C)CC)C(C)C)C(C)C)C(N)=O)C2=O)C/C1=C/C=C1\CCC[C@]2(C)[C@@H]([C@H](C)CCCC(C)(C)O)CC[C@@H]12` (stereo partly drawn) [EXT608], the half-life in series [1] is 8 to 15 h; in series [3], 24 to 32 h. Further, in “Solubility in PBS (A280)”, the “fold more soluble, acetate salt vs carbonate salt” value turned out to be 17.6 fold. The solubility in the series “Solubility in PBS (A280)” (acetate salt, read-out: Solubility as Acetate) came out at 9.67 mM; in the series “Solubility in PBS (A280)” (carbonate salt, read-out: Solubility as Carbonate), 0.55 mM. For the same compound, the “effect on urinary calcium” value in series [2] was “did not cause a significant increase”.

For the origin of these results see US12233115B2, “Long-acting parathyroid hormone” (Extend Biosciences, Inc., priority 2022, dated 2025).
